Data reported in publication PMC7782738.

Assays:
[1] = target: fully functional core construct of the rat cardiac sodium channel NaV1.5 (rNaV1.5C) (rat) (UniProt P15389)
[2] = target: fully functional core construct of the rat cardiac sodium channel NaV1.5 (rNaV1.5C) (rat) (UniProt P15389); experiment: cryo-EM structure; purified rNaV1.5C (~1 mg/ml) mixed with 50 uM LqhIII and purified FGF12b and calmodulin, re-run on Superose-6 in 25 mM imidazole pH 6.0, 150 mM NaCl, 0.006% GDN; peak concentrated to 5 mg/ml; no membrane potential

Chain of UniProt P15389 (P15389 whole entry): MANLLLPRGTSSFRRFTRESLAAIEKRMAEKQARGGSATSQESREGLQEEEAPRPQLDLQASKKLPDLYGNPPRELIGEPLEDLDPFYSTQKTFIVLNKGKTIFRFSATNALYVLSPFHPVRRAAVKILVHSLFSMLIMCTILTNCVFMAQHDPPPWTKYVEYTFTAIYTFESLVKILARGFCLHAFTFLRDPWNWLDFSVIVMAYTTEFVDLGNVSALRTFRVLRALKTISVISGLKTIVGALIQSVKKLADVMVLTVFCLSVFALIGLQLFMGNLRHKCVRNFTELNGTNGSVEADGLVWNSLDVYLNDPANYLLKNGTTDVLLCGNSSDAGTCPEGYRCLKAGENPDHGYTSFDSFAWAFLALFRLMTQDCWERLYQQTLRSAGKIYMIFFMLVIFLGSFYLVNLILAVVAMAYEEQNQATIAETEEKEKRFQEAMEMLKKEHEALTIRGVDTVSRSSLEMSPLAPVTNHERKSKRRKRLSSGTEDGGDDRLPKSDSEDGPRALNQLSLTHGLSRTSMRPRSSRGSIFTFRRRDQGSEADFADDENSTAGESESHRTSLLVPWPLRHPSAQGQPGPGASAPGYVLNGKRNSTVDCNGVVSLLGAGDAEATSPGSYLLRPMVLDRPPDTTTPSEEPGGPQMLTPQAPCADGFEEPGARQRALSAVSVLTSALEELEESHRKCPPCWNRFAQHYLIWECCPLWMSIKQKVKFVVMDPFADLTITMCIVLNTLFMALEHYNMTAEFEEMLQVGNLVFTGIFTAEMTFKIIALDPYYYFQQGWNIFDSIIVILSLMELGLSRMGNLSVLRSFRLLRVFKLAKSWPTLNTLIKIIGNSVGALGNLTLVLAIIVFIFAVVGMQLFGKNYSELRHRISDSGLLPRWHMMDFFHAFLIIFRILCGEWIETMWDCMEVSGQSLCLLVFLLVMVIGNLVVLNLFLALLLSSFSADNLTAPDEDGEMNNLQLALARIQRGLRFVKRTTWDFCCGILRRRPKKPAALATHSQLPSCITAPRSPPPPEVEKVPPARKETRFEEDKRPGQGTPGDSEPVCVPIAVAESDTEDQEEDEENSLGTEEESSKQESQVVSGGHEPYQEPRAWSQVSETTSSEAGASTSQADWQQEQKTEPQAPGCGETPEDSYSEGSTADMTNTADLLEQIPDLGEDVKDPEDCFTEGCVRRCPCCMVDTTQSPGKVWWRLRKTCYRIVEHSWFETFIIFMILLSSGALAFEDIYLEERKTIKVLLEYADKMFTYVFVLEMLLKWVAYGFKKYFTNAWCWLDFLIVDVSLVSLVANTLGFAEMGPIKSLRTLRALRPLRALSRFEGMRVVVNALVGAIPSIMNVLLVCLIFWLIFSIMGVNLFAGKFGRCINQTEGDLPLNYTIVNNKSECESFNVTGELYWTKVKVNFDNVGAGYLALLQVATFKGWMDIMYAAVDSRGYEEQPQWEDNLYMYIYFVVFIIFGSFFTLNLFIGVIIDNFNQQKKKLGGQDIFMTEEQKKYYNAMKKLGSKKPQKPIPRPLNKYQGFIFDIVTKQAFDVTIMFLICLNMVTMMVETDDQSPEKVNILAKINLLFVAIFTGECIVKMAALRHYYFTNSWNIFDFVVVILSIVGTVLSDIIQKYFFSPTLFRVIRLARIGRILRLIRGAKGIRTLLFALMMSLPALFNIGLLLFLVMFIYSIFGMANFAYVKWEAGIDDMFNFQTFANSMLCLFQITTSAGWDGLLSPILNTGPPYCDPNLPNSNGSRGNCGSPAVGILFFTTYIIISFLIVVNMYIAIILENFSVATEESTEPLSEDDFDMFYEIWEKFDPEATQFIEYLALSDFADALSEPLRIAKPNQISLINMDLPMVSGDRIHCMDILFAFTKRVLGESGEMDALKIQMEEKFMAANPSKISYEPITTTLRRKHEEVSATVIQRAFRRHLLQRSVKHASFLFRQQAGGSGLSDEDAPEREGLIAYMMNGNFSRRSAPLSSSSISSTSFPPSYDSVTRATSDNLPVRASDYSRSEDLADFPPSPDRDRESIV

B1: α-scorpion toxin LqhIII from the deathstalker scorpion Leiurus quinquestriatus hebraeus (natural protein)
chain: VRDGYIAQPENCVYHCFPGSSGCDTLCKEKGGTSGHCGFKVGHGLACWCNALPDNVGIIVEGEKCHS
Binder B1 has an inhibition of fast inactivation: sodium current remaining 6 ms after the depolarizing pulse, whole-cell patch clamp of HEK293S GnTI- cells expressing rNaV1.5C, 1-1000 nM LqhIII [1] of 11.4 nM, a time course of the block of fast inactivation on perfusion of 100 nM LqhIII, cells held at -120 mV, single exponential fit [1] of 11.3 min and a stoichiometry N [2] of 1.
